The target in data set [1] is human barrier-to-autointegration factor (BAF) with all cysteines mutated into alanine (human) (UniProt O75531). The data set is described as follows: crystal structure; ternary complex EmN T43I/BAF/lamin A/C Ig-fold at 5 mg/mL, a week at 4 °C (proteolysis to the LEM-domain); hanging drop at 4 °C, 18% PEG 3350, 100 mM Tris Bis pH 5.5, 0.1 M NH4SO4; molecular replacement; 2.3 Å.

Data set [2] deals with the molecule itself. The data set can be described thus: thioflavin T fluorescence (self-assembly kinetics); protein at 300 uM heated at 37 °C in 20 mM Tris HCl pH 8, 30 mM NaCl, 5 mM DTT; aliquots at 20 uM protein with 2.5 uM ThT read at 20 °C over 24 h.

Numbering of substitutions follows the chain as printed. Names may count otherwise.

“human barrier-to-autointegration factor (BAF) with all cysteines mutated into alanine (from UniProt O75531 1-89) (natural protein)” had a stoichiometry N in data set [1] of 2.

B1: human emerin fragment EmN (region 1-187), mutant ΔK37 (domain or fragment, UniProt P50402 1-187, looked up)
chain: MDNYADLSDTELTTLLRRYNIPHGPVVGSTRRLYEKIFEYETQRRRLSPPSSSAASSYSFSDLNSTRGDADMYDLPKKEDALLYQSKGYNDDYYEESYFTTRTYGEPESAGPSRAVRQSVTSFPDADAFHHQVHDDDLLSSSEEECKDRERPMYGRDSAYQSITHYRPVSASRSSLDLSYYPTSSS
notes: emerin, human, fragment EmN, residues 1-187, with the patient deletion ΔK37 (atrial cardiac defects); Made by site-directed mutagenesis from the EmN expression vector; also called EmN ΔK37; emerin ΔK37; not shown: His8, N-terminal, cleaved
In the case of B1, the binding result in data set [2] was “binds”.

B2: human emerin fragment EmN (region 1-187), wild-type (domain or fragment, UniProt P50402 1-187, looked up)
chain: MDNYADLSDTELTTLLRRYNIPHGPVVGSTRRLYEKKIFEYETQRRRLSPPSSSAASSYSFSDLNSTRGDADMYDLPKKEDALLYQSKGYNDDYYEESYFTTRTYGEPESAGPSRAVRQSVTSFPDADAFHHQVHDDDLLSSSEEECKDRERPMYGRDSAYQSITHYRPVSASRSSLDLSYYPTSSS
notes: emerin, human, fragment EmN, residues 1-187 of the 254-residue protein (LEM-domain aa 1-45 and part of the disordered region); pETM-13 vector; also called wild-type EmN; EmN wild-type; not shown: His8, N-terminal, cleaved
B2: the binding result in data set [2] is “binds”.

B3: human emerin fragment EmN (region 1-187), mutant T43I (domain or fragment, UniProt P50402 1-187, looked up)
chain: B2 chain with T43I
notes: emerin, human, fragment EmN, residues 1-187, with the patient mutation T43I (atrial cardiac defects); Made by site-directed mutagenesis from the EmN expression vector; also called EmN T43I; not shown: His8, N-terminal, cleaved
As to B3, in data set [2], the binding result is “binds”.

B4: human emerin fragment EmN (region 1-187), mutant P22L (domain or fragment, UniProt P50402 1-187, looked up)
chain: B2 chain with P22L
notes: emerin, human, fragment EmN, residues 1-187, with the patient mutation P22L (atrial cardiac defects); Made by site-directed mutagenesis from the EmN expression vector; also called EmN P22L; not shown: His8, N-terminal, cleaved
Consider B4, for which the binding result in data set [2] is “binds”.
